In PMC5228132:

Experiments:
[1] = biological target: VdPG1 (Verticillium dahliae polygalacturonase 1) (Verticillium dahliae)
[2] = biological target: FovPG1 (Fusarium oxysporum f. sp. vasinfectum polygalacturonase 1) (Fusarium oxysporum f. sp. vasinfectum)
[3] = biological target: VdPG1 (Verticillium dahliae polygalacturonase 1) (Verticillium dahliae); remark: listed apart in the source

GhPGIP1 (cotton polygalacturonase-inhibiting protein 1) (natural protein)
IC50 of inhibition; the text gives it for VdPG1, while the caption and footnote of Table 1 give it as antifungal activity on the growth of V. dahliae (eight doses of purified GhPGIP1) [1]: 44.4 µg/mL | percent inhibition of PG activity by 3.24 nM GhPGIP1 over pH 7.0-10.0; 23.79% at pH 8.0 and 29.61% at pH 9.0 [2]: 29.6% | percent inhibition of PG activity by 3.24 nM GhPGIP1 over pH 3.5-5.0; 26.88% at pH 4.2 and 31.45% at pH 4.8 [3]: 31.4%
